Measured values: the supplement of paper PMC10567573
± gives the standard deviation.

Test: protein stability index of a GFP-peptide fusion (GPS, HEK-293T) (PSI 1-6); higher = more stable
Conditions: c terminus: a fixed tail appended
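Further: 24-mer peptide tiles fused after GFP, lentivirally expressed, FACS-sorted into six equal bins by GFP/DsRed ratio, decoded by Illumina sequencing, PSI is the read-weighted mean bin number.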

Sequence	protein stability index (treatment: DMSO)	protein stability index (treatment: MLN4924 1 uM, 8 h)
LQGFDQLRLEGLLCDVTLMPGDTD [KLHL13]	3.61 ± 0.36	3.88 ± 0.32
LQIDNARLAADDFRTKFETEQALR [KRT17]	4.03 ± 0.24	4.27 ± 0.3
LQKVLLMLVDGIDPNFKMEHQNKR [EHMT1]	2.62 ± 0.73	2.38 ± 0.33
LQNMGLLLDKLAKENQDIRLLQAQ [PBXIP1]	2.82 ± 0.2	2.93 ± 0.35
LQRVLQNCPWPMSCPGSSYRTVVR [EMID1]	2.49 ± 0.27	2.74 ± 0.74
LQSAAGKDAAKQIAWIKDKLLHIY [PDS5B]	2.59 ± 0.39	3.09 ± 0.61
LQTSLENGTRVQEEPELVFTLGDC [FKBP8]	4.34 ± 0.2	4.77 ± 0.25
LREENKALREENRMLSKENKILQV [CBY2]	4.75 ± 0.12	4.69 ± 0.15
LRGLCRPLRPLLGFRESDSAKPAS [C6orf223]	3.31 ± 0.32	3.44 ± 0.23
LRHLSPTPSEEHMKNKNNVTEFIL [OR4A15]	3.27 ± 0.18	3.36 ± 0.12
LRNCKTYQARKPLWFYNTSLKFFL [RHOBTB3]	2.68 ± 0.55	2.84 ± 0.87
LRRFVVRTMCAVLGLVARQEDSGL [AUP1]	2.17 ± 0.71	1.91 ± 0.095
LRTIPSPYPASKADIPSVAFSSRL [DCAF4]	2.79 ± 0.34	2.94 ± 0.35
LSAEPGWQAKREEEEEEEEEAEAG [CHGA]	5.62 ± 0.081	5.4 ± 0.59
LSCTLVPRSGEQAEGSPGGPGDSQ [CDKN1A]	5.03 ± 0.41	5.05 ± 0.13
LSEIFPGGIRGRAMALTSSMNWGI [SLC2A12]	1.91 ± 0.4	2.2 ± 0.097
LSPEVLRKDPYGKPVDMWACGVIL [CAMK2D]	2.74 ± 0.55	2.14 ± 0.71
LSQAGQKTSAALSTVGSAISRKLG [TPD52L2]	3.67 ± 0.22	3.92 ± 0.27
LSVGQYNCPGQYTFSMPSDSHVSS [CD69]	3.05 ± 0.28	3.07 ± 0.27
LTDDKQVLNTQGQKTSGQHMIQGA [DLC1]	5.06 ± 0.2	5.04 ± 0.14
LTEDYFPSVPDNAELVLLTLGQAW [DFFB]	2.34 ± 0.23	2.34 ± 0.22
LTLSAGDLGGSIYANLALSGLIEI [SLC22A15]	2.77 ± 0.91	3.43 ± 0.74
LTPLELLLRQLGRDAGATPSAAGA [ANKRD9]	2.42 ± 0.16	2.58 ± 0.23

Sequence	protein stability index (treatment: DMSO)	protein stability index (treatment: MLN4924 1 uM, 8 h)
LTPSSKEMMSQALKATFSGFTKEQ [ETS1]	3.87 ± 0.24	3.74 ± 0.19
LTPTYLNQEDAIHFHRTLKEACDQ [CPOX]	4.11 ± 0.25	4.35 ± 0.29
LTQIDGTLSTIEFQREALENSHTN [CHMP4C]	4.34 ± 0.25	4.57 ± 0.22
LVAPVLEPGKQERDVYLPAGKWRS [MYORG]	3.49 ± 0.16	3.75 ± 0.2
LVEDMQRELGRLRQQVTNHGRGTE [ZNF263]	3.35 ± 0.33	3.55 ± 0.22
LVTLPVSFAQLKNLKWLDLKDNPL [LRRC59]	2.29 ± 0.082	2.31 ± 0.23
LWEALCSQGAISEGAQRDRFPGRK [C22orf31]	3.11 ± 0.12	3.3 ± 0.32
MAEGDNRSTNLLAAETASLEEQLQ [ARL6IP1]	5.37 ± 0.31	5.43 ± 0.17
MATPDAGLPGAEGVEPAPWAQLEA [FANCE]	4.86 ± 0.32	4.96 ± 0.27
MDEAVGDLKQALPCVAESPTVHVE [TRIP13]	5.18 ± 0.13	5.01 ± 0.19
MDLLTQSLGVDTLPPPDPNPPRAE [APBB1IP]	4.85 ± 0.2	4.87 ± 0.14
MESLISAPLVKTLEKEEEKDLVMY [CDC25B]	4.56 ± 0.062	4.61 ± 0.24
MEVQHFRTIYHMFIAGLCVFIIST [SOAT2]	2.95 ± 0.27	3.18 ± 0.52
MGEDEDGLSEKNCQNKCRIALVEN [PLD5]	5.14 ± 0.51	4.82 ± 0.11
MGESSEDIDQMFSTLLGEMDLLTQ [APBB1IP]	4.25 ± 0.11	4.08 ± 0.32
MGVGKASASDGSSFVVARYFPAGN [GLIPR2]	3.13 ± 0.26	2.96 ± 0.26
MGYMLFNERMLESYLHAKKYLKPS [CARM1]	2.35 ± 0.17	2.08 ± 0.32
MHDAFEPVPILEKLPLQIDCLAAW [VPS39]	2.56 ± 0.34	2.56 ± 0.27
MIRKGGDQTSLLVVDKETDNMYRL [PDZK1]		3.17 ± 0.25
MKAHSFVRENVPRVLNSAKEKSST [SOAT1]	4.58 ± 0.12	4.57 ± 0.13
MKGRGQLEKPPAPNQAMVVAAAGD [TBC1D10A]	5 ± 0.26	4.94 ± 0.49
MKTFVSPEAISPDLVKKIRDFHRK [TRIM15]	3.17 ± 0.13	3.07 ± 0.16
